Assay results as given in patent US20220143136A1, “USE OF ANNEXINS IN PREVENTING AND TREATING MUSCLE MEMBRANE INJURY” (NORTHWESTERN UNIVERSITY, priority 2018, published 2022).
Like-named read-outs stand apart in the source and are kept apart here.

Assays:
[1] = tested on: wildtype myofibers; experiment: Laser injury FM 4-64 uptake, E coli versus HEK cell produced rANXA6; format: cell-based, mouse; conditions: 13 μg/ml and 130 μg/ml; vs BSA control
Procedure: Myofiber isolation, laser injury, and dye measurement. For recombinant myofibers studies, myofibers were isolated from wildtype mice. Myofibers were incubated in Ringer's media with 13 μg/ml or 130 μg/ml human recombinant annexin, E coli or HEK cell produced. Bovine serum albumin (BSA) was used as a negative control. FM 4-64 ([…]) was added to the myofibers just prior to imaging. Fibers were subjected to laser-induced damage at room temperature using the Nikon A1R-MP multiphoton microscope. Imaging was performed using a 25×1.1 NA objective directed by the NIS-Elements AR imaging software. FM 4-64 was excited using a 920 nm wavelength laser and emission wavelengths of 575 nm and 629 nm were collected, respectively. To induce laser damage on isolated myofibers, a diffraction limited spot (diameter approximately 410 nm) was created on the lateral membrane of the myofiber using a 920 nm wavelength laser at 10-15% laser power for 1 second. FM 4-64 area was measured using FIJI from a single slice near the middle of the z-stack. Myofiber quality control was based on a number of characteristics including using adherent myofibers with intact sarcomere structure. Myofibers appeared devoid of tears or ruptures induced during the isolation protocol. The region of the myofiber selected for damage was linear and not located on a nucleus or neuromuscular junction.
Statistical analyses were performed with Prism (Graphpad, La Jolla, Calif.). Comparisons relied on ANOVA (1way ANOVA for 1 variable). P-values of less than or equal to 0.05 were considered significant. Error bars represent +/−standard error of the mean (SEM).

[2] = tested on: Sgcg-null mice; conditions: 1 mg/kg, 5 injections over 48 hours, 60 minutes downhill running, vs BSA control
Procedure: Serum collection and CK analysis. Mice were sedated (3% isoflurane, 0.8 l/min O2) and blood was collected by means of retro-orbital puncture with heparinized capillary tubes (20-362-566; Fisher Scientific, Waltham, Mass.) into Microtainer™ Gold Top Serum Separator (365967 Becton Dickinson, Franklin Lakes, N.J.) and centrifuged at 8,000×g for 10 minutes. The plasma fractions were frozen and stored at −80° C. Serum creatine kinase (CK) was analyzed in duplicate for each mouse using the EnzyChrom Creatine Kinase Assay (ECPK-100; BioAssay Systems, Hayward, Calif.) following manufacturer's instructions as described (Demonbreun A R, Allen M V, Warner J L, Barefield D Y, Krishnan S, Swanson K E, et al. Enhanced Muscular Dystrophy from Loss of Dysferlin Is Accompanied by Impaired Annexin A6 Translocation after Sarcolemmal Disruption. Am J Pathol. 2016; 186(6):1610-22). Results were acquired with the Synergy HTX multi-mode plate reader (BioTek®, Winooski, Vt.).
Sgcg-null mice were sedated (3% isoflurane, 0.8 l/min O2) and pre-exercise blood was collected by means of left retro-orbital puncture as described above. While sedated, mice were then injected 1 mg/kg recombinant annexin A6 (5186-A6-050, R&D systems) or PBS+1 mg/kg BSA into the right retro-orbital cavity at 9 am and 5 μm for 5 consecutive injection over 48 hours. […] Serum creatine kinase (CK) was analyzed as described above. […]

[3] = tested on: tibialis anterior muscles of wildtype mice; experiment: Cardiotoxin injury, intramuscular recombinant annexin A6, Evan's blue dye uptake; format: in vivo, mouse; conditions: for decrease in Evan's blue dye uptake (fluorescence over muscle area): 25 μg/ml intramuscular 2 hours before cardiotoxin, harvested 3 hours post injury, vs control muscle; for cardiotoxin-induced muscle damage, dye uptake by gross imaging: intramuscular pretreatment vs control
Procedure: (§1) Cardiotoxin Injury and analysis. […] Additionally, mice were injected intraperitoneally with Evans' blue dye at 5 μl/g body weight (E-2129; Sigma-Aldrich, St. Louis, Mo.) dissolved in phosphate-buffered saline at 10 mg/mL. […] Cardiotoxin injury was performed injecting 20 μl of a 10 μM cardiotoxin (discontinued, Sigma-Aldrich) solution in PBS in tibialis muscles in sedated animals (3% isoflurane, 0.8 l/min O2) 2 hours post pretreatment. Cardiotoxin was released down the midline of the muscle to induce a homogenous area of injury at the center of the muscle. 3 hours post cardiotoxin injection muscle was harvested and frozen in liquid nitrogen.
(§2) Immunofluorescence microscopy. Sections (10 μm thick) from the center of frozen-embedded muscles were collected on the cryostat (chamber, −20° C.; sample, −15° C.; catalog number CM1950; Leica, Wetzlar, Germany) for immunostaining. Tissues were fixed with 4% paraformaldehyde for 10 minutes on ice. Block and permeabilization were with 0.1% Triton (catalog number X-100; Sigma-Aldrich), 10% fetal bovine serum, and PBS for 60 minutes. For dystrophin detection, anti-dystrophin (ab15277; Abcam, Cambridge, Mass.) was used at a dilution of 1:100 overnight at 4° C. Sections were PBS rinsed, incubated with secondary antibody goat anti rabbit (A11008, Invitrogen) for 1 hour, PBS rinsed, and mounted in vectashield with DAPI (H-1200, Vector Laboratories). Imaging was performed using a Zeiss Axio Observer A1 microscope (Zeiss, Oberkochen, Germany), using a 10× objective. ZEN software (Zeiss, Jena, Germany) was used for acquiring images. Fluorescence quantitation and muscle area were performed using FIJI (NIH). Surface plots were created in FIJI (NIH). Fluorescence volume was quantified using Imaris Software v9.1.2.
(§3) Cardiotoxin Injury and analysis. […] Additionally, mice were injected with Evans' blue dye at 5 μl/g body weight (E-2129; Sigma-Aldrich, St. Louis, Mo.) dissolved in phosphate-buffered saline at 10 mg/mL cardiotoxin injury was performed injecting 20 μl of a 10 μM cardiotoxin solution in PBS in tibialis anterior or gastroc/soleus muscles in sedated animals (3% isoflurane, 0.8 l/min O2) 2 hours post pretreatment. Cardiotoxin was released down the midline of the muscle to induce a homogenous area of injury at the center of the muscle. 3 hours post cardiotoxin injection muscle was harvested.
Evans blue dye uptake. […] Fluorescence quantitation, surface plots, and muscle area were performed using FIJI (NIH). For whole tissue dye quantification, whole tissue was dissected, finely minced, weighed, and incubated at 55° C. in 1 mL of formamide for 2 hours. Spectrophotometric absorbance was measured at 620 nm.

[4] = tested on: wildtype mice; experiment: Cardiotoxin injury, systemic retro-orbital recombinant annexin A6, Evan's blue dye uptake; format: in vivo, mouse; conditions: vs vehicle; for decrease in Evan's blue dye uptake, fluorescence imaging of tibialis anterior: 1 mg/kg retro-orbital 2 hours before cardiotoxin, 3 hours post injury
Procedure: as §1, §2, §3
Evans blue dye uptake. Sections (10 μm thick) from the center of frozen-embedded muscles were collected on the cryostat (chamber, −20° C.; sample, −15° C.; catalog number CM1950; Leica, Wetzlar, Germany). Tissue sections were fixed with methanol for 2 minutes, rinsed and mounted with vectashield with DAPI (H-1200, Vector Laboratories). Imaging was performed using a Zeiss Axio Observer A1 microscope (Zeiss, Oberkochen, Germany), using a 10× objective. ZEN software (Zeiss, Jena, Germany) was used for acquiring images. Fluorescence quantitation, surface plots, and muscle area were performed using FIJI (NIH). For whole tissue dye quantification, whole tissue was dissected, finely minced, weighed, and incubated at 55° C. in 1 mL of formamide for 2 hours. Spectrophotometric absorbance was measured at 620 nm.

[5] = tested on: wildtype myofibers; experiment: Ca2+-dependency of recombinant annexin A6 protection, FM 1-43 uptake after laser injury; format: cell-based, mouse; conditions: 20 μg/ml rANXA6 pretreatment, 0 mM Ca2+ + EGTA compared with 1 mM Ca2+
Procedure: Multiphoton laser injury and imaging. Fibers were subjected to laser-induced damage at room temperature using the Nikon A1R-MP multiphoton microscope. Imaging was performed using a 25×1.1 NA objective directed by the NIS-Elements AR imaging software. Green fluorescence protein (GFP) and FM 4-64 were excited using a 920 nm wavelength laser and emission wavelengths of 575 nm and 629 nm were collected respectively. To induce laser damage on isolated myofibers, a diffraction limited spot (diameter approximately 410 nm) was created on the lateral membrane of the myofiber using a 920 nm wavelength laser at 10-15% laser power for 1 s. Time lapse images were collected as follows: one image was collected prior to damage, one image upon damage, then every 8 seconds for 80 seconds (10 images) followed by every 30 seconds for 5 minutes (10 images). At the end of the time lapsed image series, z-stack images were collected at 250 nm intervals through the damaged site on the myofiber directed by the NIS-Elements AR imaging software. The multiphoton was used to acquire data presented in FIG. 5, FIG. 10D and FIG. 19.
For recombinant protein calcium studies, myofibers were isolated from wildtype mice as described above. […] Images were acquired and quantitated as described above. FM 1-43 fluorescence over time was measured using FIJI and plotted overtime as F/F0.

B1: recombinant annexin A6: recombinant human annexin A6 protein with C-terminal HIS tag (5186-A6-050, R&D systems); mouse protein from Northwestern core in one cohort (protein, UniProt P08133 2-673, looked up)
Annexin A6: AKPAQGAKYRGSIHDFPGFDPNQDAEALYTAMKGFGSDKEAILDIITSRSNRQRQEVCQSYKSLYGKDLIADLKYELTGKFERLIVGLMRPPAYCDAKEIKDAISGIGTDEKCLIEILASRTNEQMHQLVAAYKDAYERDLEADIIGDTSGHFQKMLVVLLQGTREEDDVVSEDLVQQDVQDLYEAGELKWGTDEAQFIYILGNRSKQHLRLVFDEYLKTTGKPIEASIRGELSGDFEKLMLAVVKCIRSTPEYFAERLFKAMKGLGTRDNTLIRIMVSRSELDMLDIREIFRTKYEKSLYSMIKNDTSGEYKKTLLKLSGGDDDAAGQFFPEAAQVAYQMWELSAVARVELKGTVRPANDFNPDADAKALRKAMKGLGTDEDTIIDIITHRSNVQRQQIRQTFKSHFGRDLMTDLKSEISGDLARLILGLMMPPAHYDAKQLKKAMEGAGTDEKALIEILATRTNAEIRAINEAYKEDYHKSLEDALSSDTSGHFRRILISLATGHREEGGENLDQAREDAQVAAEILEIADTPSGDKTSLETRFMTILCTRSYPHLRRVFQEFIKMTNYDVEHTIKKEMSGDVRDAFVAIVQSVKNKPLFFADKLYKSMKGAGTDEKTLTRIMVSRSEIDLLNIRREFIEKYDKSLHQAIEGDTSGDFLKALLALCGGED
modifications: C-terminal His tag
notes: recombinant human annexin A6 protein with C-terminal HIS tag (5186-A6-050, R&D systems); mouse protein from Northwestern core in one cohort
With B1 the “FM 4-64 dye uptake after laser injury” value [1] was “reduction”, the “fold change in serum CK post/pre running” value [2] was “reduced” and the “fold change in serum CK post/pre running” value ([2]; listed as rANXA6) was “significantly reduced”. The “decrease in Evan's blue dye uptake (fluorescence over muscle area)” value [3] was 50%, the “decrease in Evan's blue dye uptake (fluorescence over muscle area)” value ([3]; listed as rANXA6) was “approximately 50%” and the “cardiotoxin-induced muscle damage, dye uptake by gross imaging” value [3] was “reduced”. The “cardiotoxin-induced muscle damage, dye uptake by gross imaging” value ([3]; listed as rANXA6) was “decreased”, the “decrease in Evan's blue dye uptake, fluorescence imaging of tibialis anterior” value [4] was 38% and the “decrease in Evan's blue dye uptake, fluorescence imaging of tibialis anterior” value ([4]; listed as rANXA6) was “approximately 38%”. For the same molecule, the “reduction in dye uptake, whole tissue spectroscopic analysis of gastrocnemius/soleus” value ([4]; 1 mg/kg retro-orbital pretreatment) was 58%, the “Evan's blue dye uptake, fluorescence imaging” value ([4]; retro-orbital post-treatment immediately after cardiotoxin) was “significant decrease” and the “Evan's blue dye uptake, fluorescence imaging” value ([4]; retro-orbital pretreatment 2 hours prior to cardiotoxin) was “significant decrease”. For the same molecule, the “FM 1-43 fluorescence accumulation at the lesion over time (F/F0)” value [5] was “significantly increased” and the “FM 1-43 fluorescence accumulation at the lesion over time (F/F0)” value ([5]; listed as rANXA6) was “significantly reduced at 1 mM”.
